Test results published in article PMC7096168.

T1: dCTCF zinc finger cluster (UniProt Q9VS55 294-614)
T1 sequence: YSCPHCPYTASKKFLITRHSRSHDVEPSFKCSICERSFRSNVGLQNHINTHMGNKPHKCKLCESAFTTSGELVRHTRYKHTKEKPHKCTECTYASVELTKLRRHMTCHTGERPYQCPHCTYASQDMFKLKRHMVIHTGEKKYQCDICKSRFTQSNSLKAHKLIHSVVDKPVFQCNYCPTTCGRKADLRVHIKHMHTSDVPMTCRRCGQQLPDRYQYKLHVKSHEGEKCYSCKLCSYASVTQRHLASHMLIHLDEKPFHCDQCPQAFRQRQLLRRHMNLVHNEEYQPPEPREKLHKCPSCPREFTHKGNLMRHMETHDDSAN

T2: Su(Hw) zinc finger cluster (UniProt P08970 220-619)
T2 sequence: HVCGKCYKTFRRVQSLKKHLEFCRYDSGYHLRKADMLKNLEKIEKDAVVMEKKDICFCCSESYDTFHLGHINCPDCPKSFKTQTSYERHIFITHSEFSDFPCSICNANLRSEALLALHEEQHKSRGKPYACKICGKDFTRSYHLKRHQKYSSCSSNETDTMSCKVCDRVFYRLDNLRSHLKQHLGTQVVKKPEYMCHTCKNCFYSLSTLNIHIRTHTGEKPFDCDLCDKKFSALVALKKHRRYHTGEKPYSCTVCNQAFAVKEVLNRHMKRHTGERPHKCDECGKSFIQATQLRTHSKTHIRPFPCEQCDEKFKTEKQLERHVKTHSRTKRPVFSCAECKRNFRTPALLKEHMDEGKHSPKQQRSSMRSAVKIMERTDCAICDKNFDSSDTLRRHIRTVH

B1: F2177ΔSu (dsDNA)
DNA 1: GTTCAACAAGTCTGCTTATGTGCACCCTCTCGCGATCGGTGGCATAACCAATCGAGGATTCAGCTCTTGAGCTACCTGCCGAAAGGGGCGCGGCGACCTTAAGGGCGACATCTATATCTCGCATAGTGTGCAGAACTGCTTGTTCCTAGTCAC
DNA 2: GTGACTAGGAACAAGCAGTTCTGCACACTATGCGAGATATAGATGTCGCCCTTAAGGTCGCCGCGCCCCTTTCGGCAGGTAGCTCAAGAGCTGAATCCTCGATTGGTTATGCCACCGATCGCGAGAGGGTGCACATAAGCAGACTTGTTGAAC
B2: CTCF×4 (dsDNA)
DNA 1: ACTAGTGCTGCAGCGCCACCTGGCCTTGGAGATCCTGCAGCGCCACCTGGCCTTGGAGATCCTGCAGCGCCACCTGGCCTTGGAGATCTCCAAGGCCAGGTGGCGCTGCAGCCCCGGG
DNA 2: CCCGGGGCTGCAGCGCCACCTGGCCTTGGAGATCTCCAAGGCCAGGTGGCGCTGCAGGATCTCCAAGGCCAGGTGGCGCTGCAGGATCTCCAAGGCCAGGTGGCGCTGCAGCACTAGT
B3: F2177ΔC (dsDNA)
DNA 1: ATGCCTAAAAGTATGCAGAAATTTGTTCAACAAGTCTGCTTATGTGCACCCTCTCGCGATCGGTGGCATAACCAATCGAGGATTCAGCTCTTGAGCTACCTGCCGAAAGGGGCGCGGCAACCTTAAGCTTGCATAGTGTGCAGAACTGCTTGTTCCTAGTCAC
DNA 2: GTGACTAGGAACAAGCAGTTCTGCACACTATGCAAGCTTAAGGTTGCCGCGCCCCTTTCGGCAGGTAGCTCAAGAGCTGAATCCTCGATTGGTTATGCCACCGATCGCGAGAGGGTGCACATAAGCAGACTTGTTGAACAAATTTCTGCATACTTTTAGGCAT
B4: F2177 (dsDNA)
DNA 1: ATGCCTAAAAGTATGCAGAAATTTGTTCAACAAGTCTGCTTATGTGCACCCTCTCGCGATCGGTGGCATAACCAATCGAGGATTCAGCTCTTGAGCTACCTGCCGAAAGGGGCGCGGCGACCTTAAGGGCGACATCTATATCTCGCATAGTGTGCAGAACTGCTTGTTCCTAGTCAC
DNA 2: GTGACTAGGAACAAGCAGTTCTGCACACTATGCGAGATATAGATGTCGCCCTTAAGGTCGCCGCGCCCCTTTCGGCAGGTAGCTCAAGAGCTGAATCCTCGATTGGTTATGCCACCGATCGCGAGAGGGTGCACATAAGCAGACTTGTTGAACAAATTTCTGCATACTTTTAGGCAT
B5: F2177Δ21 (dsDNA)
DNA 1: ATGCCTAAAAGTATGCAGAAATTTGTTCAACAAGTCTGCTTATGTGCACCCTCTCGCGATCGGTGGCATAACCAATCGAGGATTCAGCTCTTGAGCTACCTGCAAGCTTAAGGGCGACATCTATATCTCGCATAGTGTGCAGAACTGCTTGTTCCTAGTCAC
DNA 2: GTGACTAGGAACAAGCAGTTCTGCACACTATGCGAGATATAGATGTCGCCCTTAAGCTTGCAGGTAGCTCAAGAGCTGAATCCTCGATTGGTTATGCCACCGATCGCGAGAGGGTGCACATAAGCAGACTTGTTGAACAAATTTCTGCATACTTTTAGGCAT

These binders were tested against T1, dCTCF zinc finger cluster (assay: EMSA).
B1: binds.
B2: binds.
B3: no binding.
B4: binds.
B5: binds.

Each binder was assayed against T2, Su(Hw) zinc finger cluster (assay: EMSA).
B1: no binding.
B3: binds.
B4: binds.
